Biological target: T1, Mpl expressed as an mKO2 fusion protein (Mpl^mKO2) (human, UniProt P40238 26-635)
T1 sequence (looked up): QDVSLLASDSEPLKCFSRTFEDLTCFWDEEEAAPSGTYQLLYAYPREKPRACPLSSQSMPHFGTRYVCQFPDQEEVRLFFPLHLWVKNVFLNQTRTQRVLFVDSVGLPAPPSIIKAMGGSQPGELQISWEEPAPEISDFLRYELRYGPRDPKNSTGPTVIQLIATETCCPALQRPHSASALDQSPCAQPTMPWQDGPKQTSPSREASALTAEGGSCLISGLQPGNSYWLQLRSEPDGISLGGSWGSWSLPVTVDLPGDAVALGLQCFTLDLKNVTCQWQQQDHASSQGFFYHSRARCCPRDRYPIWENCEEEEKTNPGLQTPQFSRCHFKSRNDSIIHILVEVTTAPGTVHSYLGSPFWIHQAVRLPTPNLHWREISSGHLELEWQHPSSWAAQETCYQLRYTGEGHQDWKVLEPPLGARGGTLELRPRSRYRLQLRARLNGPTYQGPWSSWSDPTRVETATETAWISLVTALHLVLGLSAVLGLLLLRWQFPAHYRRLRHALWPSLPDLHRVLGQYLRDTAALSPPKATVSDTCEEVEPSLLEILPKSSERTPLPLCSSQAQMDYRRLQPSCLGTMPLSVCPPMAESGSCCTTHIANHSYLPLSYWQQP
Experiment: co-IP

B1: Jak2WT (endogenous wildtype Jak2 of K562 cells) (enzyme, human (endogenous in K562), UniProt O60674 1-1132, looked up)
chain: MGMACLTMTEMEGTSTSSIYQNGDISGNANSMKQIDPVLQVYLYHSLGKSEADYLTFPSGEYVAEEICIAASKACGITPVYHNMFALMSETERIWYPPNHVFHIDESTRHNVLYRIRFYFPRWYCSGSNRAYRHGISRGAEAPLLDDFVMSYLFAQWRHDFVHGWIKVPVTHETQEECLGMAVLDMMRIAKENDQTPLAIYNSISYKTFLPKCIRAKIQDYHILTRKRIRYRFRRFIQQFSQCKATARNLKLKYLINLETLQSAFYTEKFEVKEPGSGPSGEEIFATIIITGNGGIQWSRGKHKESETLTEQDLQLYCDFPNIIDVSIKQANQEGSNESRVVTIHKQDGKNLEIELSSLREALSFVSLIDGYYRLTADAHHYLCKEVAPPAVLENIQSNCHGPISMDFAISKLKKAGNQTGLYVLRCSPKDFNKYFLTFAVERENVIEYKHCLITKNENEEYNLSGTKKNFSSLKDLLNCYQMETVRSDNIIFQFTKCCPPKPKDKSNLLVFRTNGVSDVPTSPTLQRPTHMNQMVFHKIRNEDLIFNESLGQGTFTKIFKGVRREVGDYGQLHETEVLLKVLDKAHRNYSESFFEAASMMSKLSHKHLVLNYGVCVCGDENILVQEFVKFGSLDTYLKKNKNCINILWKLEVAKQLAWAMHFLEENTLIHGNVCAKNILLIREEDRKTGNPPFIKLSDPGISITVLPKDILQERIPWVPPECIENPKNLNLATDKWSFGTTLWEICSGGDKPLSALDSQRKLQFYEDRHQLPAPKWAELANLINNCMDYEPDFRPSFRAIIRDLNSLFTPDYELLTENDMLPNMRIGALGFSGAFEDRDPTQFEERHLKFLQQLGKGNFGSVEMCRYDPLQDNTGEVVAVKKLQHSTEEHLRDFEREIEILKSLQHDNIVKYKGVCYSAGRRNLKLIMEYLPYGSLRDYLQKHKERIDHIKLLQYTSQICKGMEYLGTKRYIHRDLATRNILVENENRVKIGDFGLTKVLPQDKEYYKVKEPGESPIFWYAPESLTESKFSVASDVWSFGVVLYELFTYIEKSKSPPAEFMRMIGNDKQGQMIVFHLIELLKNNGRLPRPDGCPDEIYMIMTECWNNNVNQRPSFRDLALRVDQIRDNMAG
fold more co-immunoprecipitated than Jak2V617F with endogenous Mpl in HEL cells: ~8 fold
